Experimental data taken from US20260184814A1, “BROADLY NE[…] INFLUENZA NEURAMINIDASE” (priority 2022, published 2026).

Tests used:
[1] = target: human FcγRIIIa (F158 allele) (human) (UniProt P08637)
[2] = target: human FcγRIIIa (V158 allele) (human) (UniProt P08637)
[3] = target: human FcγRIIa (H131 allele) (human) (UniProt P12318)
[4] = target: human FcγRIIb (human) (UniProt P31994)
[5] = target: human C1q (human) (UniProt P02745); assay: MSD
[6] = target: human FcRn (human) (UniProt P55899); assay: MSD
[7] = target: human FcγRIIIa (F158 allele) (human) (UniProt P08637); assay: MSD
[8] = target: human FcγRIIIa (V158 allele) (human) (UniProt P08637); assay: MSD
[9] = target: human FcγRIIIb (human) (UniProt O75015); assay: MSD
[10] = target: human FcγRIIa (H131 allele) (human) (UniProt P12318); assay: MSD
[11] = target: human FcγRIIa (R131 allele) (human) (UniProt P12318); assay: MSD
[12] = target: human FcγRIIb (human) (UniProt P31994); assay: MSD
[13] = target: human C1q (human) (UniProt P02745); assay: MSD [cont'd]
[14] = target: human FcRn (human) (UniProt P55899); assay: MSD [cont'd]
[15] = target: human FcγRIIIa (F158 allele) (human) (UniProt P08637); assay: MSD [cont'd]
[16] = target: human FcγRIIIa (V158 allele) (human) (UniProt P08637); assay: MSD [cont'd]
[17] = target: human FcγRIIIb (human) (UniProt O75015); assay: MSD [cont'd]
[18] = target: human FcγRIIa (H131 allele) (human) (UniProt P12318); assay: MSD [cont'd]
[19] = target: human FcγRIIa (R131 allele) (human) (UniProt P12318); assay: MSD [cont'd]
[20] = target: human FcγRIIb (human) (UniProt P31994); assay: MSD [cont'd]
[21] = target: human FcRn (human) (UniProt P55899); assay: MSD, pH 6 [cont'd]
[22] = target: human FcγRIIa (H131 allele) (human) (UniProt P12318); assay: Table B summary, vs fucosylated wild-type human IgG1
[23] = target: human FcγRIIa (R131 allele) (human) (UniProt P12318); assay: as above

Chain of human FcγRIIIa (F158 allele) (human) (P08637 17-208 limits assumed): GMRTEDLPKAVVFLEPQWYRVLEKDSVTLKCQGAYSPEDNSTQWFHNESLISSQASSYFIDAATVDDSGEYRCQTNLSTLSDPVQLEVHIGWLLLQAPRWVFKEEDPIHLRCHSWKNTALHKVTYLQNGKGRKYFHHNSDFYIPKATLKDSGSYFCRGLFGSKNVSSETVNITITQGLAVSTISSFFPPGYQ
Chain of human FcγRIIa (H131 allele) (human) (P12318 34-218 limits assumed): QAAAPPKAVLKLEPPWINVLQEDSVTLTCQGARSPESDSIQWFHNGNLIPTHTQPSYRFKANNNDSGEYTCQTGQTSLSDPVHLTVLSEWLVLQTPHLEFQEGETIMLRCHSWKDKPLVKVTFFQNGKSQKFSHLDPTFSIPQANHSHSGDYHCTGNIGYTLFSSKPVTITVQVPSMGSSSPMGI
Chain of human FcRn (human) (P55899 24-297 limits assumed, chain 1 of 2): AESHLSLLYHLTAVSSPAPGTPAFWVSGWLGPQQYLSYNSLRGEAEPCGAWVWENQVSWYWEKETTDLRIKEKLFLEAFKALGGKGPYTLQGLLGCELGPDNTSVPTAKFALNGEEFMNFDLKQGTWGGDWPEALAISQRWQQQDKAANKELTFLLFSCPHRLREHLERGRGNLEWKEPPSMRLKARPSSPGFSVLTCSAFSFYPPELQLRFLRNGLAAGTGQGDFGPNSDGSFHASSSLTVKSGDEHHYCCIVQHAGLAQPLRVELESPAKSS
Chain of human FcRn (human) (chain, as listed by the source limits assumed, chain 2 of 2): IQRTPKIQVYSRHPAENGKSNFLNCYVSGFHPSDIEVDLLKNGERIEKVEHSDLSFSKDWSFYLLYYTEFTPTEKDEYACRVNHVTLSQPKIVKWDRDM
Chain of human C1q (human) (P02745 23-245 limits assumed, chain 1 of 3): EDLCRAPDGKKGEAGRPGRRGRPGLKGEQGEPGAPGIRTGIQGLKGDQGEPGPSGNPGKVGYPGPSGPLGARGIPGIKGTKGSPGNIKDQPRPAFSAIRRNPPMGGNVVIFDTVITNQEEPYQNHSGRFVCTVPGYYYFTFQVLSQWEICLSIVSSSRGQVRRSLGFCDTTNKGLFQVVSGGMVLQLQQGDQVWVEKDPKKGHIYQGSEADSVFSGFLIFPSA
Chain of human C1q (human) (P02746 28-253 limits assumed, chain 2 of 3, further chain): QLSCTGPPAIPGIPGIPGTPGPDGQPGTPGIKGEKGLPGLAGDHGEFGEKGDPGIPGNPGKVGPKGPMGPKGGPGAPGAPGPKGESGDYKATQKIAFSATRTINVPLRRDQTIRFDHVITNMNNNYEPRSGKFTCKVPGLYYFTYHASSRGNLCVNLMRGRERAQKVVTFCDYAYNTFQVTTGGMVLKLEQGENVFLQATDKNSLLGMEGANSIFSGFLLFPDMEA
Chain of human C1q (human) (P02747 29-245 limits assumed, chain 3 of 3, further chain): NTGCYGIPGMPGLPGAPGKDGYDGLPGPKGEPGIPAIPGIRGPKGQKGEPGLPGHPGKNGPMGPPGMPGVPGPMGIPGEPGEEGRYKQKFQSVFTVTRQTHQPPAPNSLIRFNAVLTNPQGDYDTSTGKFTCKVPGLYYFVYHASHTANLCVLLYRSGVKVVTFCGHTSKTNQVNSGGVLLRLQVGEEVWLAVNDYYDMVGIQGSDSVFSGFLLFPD
Chain of human FcγRIIa (R131 allele) (human) (P12318 34-218 H167R limits assumed): as the sequence (P12318 34-218 limits assumed) above, with H134R counted along it
Chain of human FcγRIIb (human) (P31994 43-217 limits assumed): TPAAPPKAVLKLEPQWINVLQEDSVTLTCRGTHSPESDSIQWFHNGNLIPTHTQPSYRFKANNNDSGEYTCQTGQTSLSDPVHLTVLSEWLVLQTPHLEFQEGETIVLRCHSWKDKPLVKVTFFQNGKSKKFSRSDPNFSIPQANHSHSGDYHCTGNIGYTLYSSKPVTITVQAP
Chain of human FcγRIIIa (V158 allele) (human) (P08637 17-208 F176V limits assumed): as the sequence (P08637 17-208 limits assumed) above, with F160V counted along it
Chain of human FcγRIIIb (human) (O75015 17-200 limits assumed): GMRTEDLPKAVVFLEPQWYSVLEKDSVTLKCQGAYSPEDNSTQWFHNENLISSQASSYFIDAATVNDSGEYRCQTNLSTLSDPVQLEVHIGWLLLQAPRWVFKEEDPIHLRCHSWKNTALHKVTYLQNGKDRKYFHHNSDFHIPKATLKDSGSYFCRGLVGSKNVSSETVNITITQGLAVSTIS

Substance: IgG1 antibody with Fc variant G236A_R292P_Y300L
- FcγR reporter signaling, fold-change vs wt [cont'd] [1]: 6.15 fold
- FcγR reporter signaling, fold-change vs wt [cont'd] [2]: 2.83 fold
- FcγR reporter signaling, fold-change vs wt [cont'd] [3]: 1.87 fold
- FcγR reporter signaling, fold-change vs wt [cont'd] [4]: 1.01 fold
- fold-change vs FY1 rIgG1m3 [5]: 1.01 fold
- fold-change vs FY1 rIgG1m3 [6]: 0.8 fold
- fold-change vs FY1 rIgG1m3 [7]: 3.7 fold
- fold-change vs FY1 rIgG1m3 [8]: 2.7 fold
- fold-change vs FY1 rIgG1m3 [9]: 1.03 fold
- fold-change to WT Fc [10]: 14.2 fold
- fold-change vs FY1 rIgG1m3 [10]: 14.2 fold
- fold-change to WT Fc [11]: 2.71 fold
- fold-change vs FY1 rIgG1m3 [11]: 2.7 fold
- fold-change to WT Fc [12]: 0.94 fold
- fold-change vs FY1 rIgG1m3 [12]: 0.9 fold
- fold-change to WT Fc [13]: 1.01 fold
- fold-change vs wt [13]: 1.01 fold
- fold-change vs wt [14]: 0.83 fold
- fold-change to WT Fc [15]: 3.71 fold
- fold-change vs wt [15]: 3.71 fold
- fold-change to WT Fc [16]: 2.69 fold
- fold-change vs wt [16]: 2.69 fold
- fold-change vs wt [17]: 1.03 fold
- fold-change vs wt [18]: 14.2 fold
- fold-change vs wt [19]: 2.71 fold
- fold-change vs wt [20]: 0.94 fold
- fold-change to WT Fc [21]: 0.828 fold
- fold-change in binding vs fucosylated wild-type human IgG1 [22]: 14 fold
- fold-change in binding vs fucosylated wild-type human IgG1 [23]: 2.7 fold
